Laboratory results as given in the supplement of paper PMC11780869.

Tested on: Bacillus subtilis
Experiment: cleaved RNA product abundance (RNA/gDNA barcode ratio) relative to median wild-type variant (ratio to wild type); higher = more accumulation of the downstream cleavage product
In short: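 Reporter mRNAs based on truncated aprE or tetM carried barcoded, mutagenized RNase Y cleavage-site windows built from oligos with a 9% error rate and were integrated into the B. subtilis chromosome. Cultures grew in LB at 37°C from OD600 0.0003 to 0.3. Cleaved RNA was gel-selected, reverse transcribed and barcode-sequenced together with genomic DNA barcodes, and UMIs were collapsed. Cleaved product abundance is the per-construct ratio of RNA to gDNA barcodes, scaled to the median of constructs carrying the unmutated site.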

[1] = experiment (reporter, strain, medium): exp 4a: truncated aprE reporter, strain BJT201 with 2% xylose (RNase J1 expressed), cleavage site: cggR-gapA (positions -7 to +36 mutated)
[2] = experiment (reporter, strain, medium): exp 2b: truncated aprE reporter, strain BJT200, cleavage site: cggR-gapA (positions -7 to +36 mutated)
[3] = experiment (reporter, strain, medium): exp 8a: truncated aprE reporter, strain BJT201 with 2% xylose (RNase J1 expressed), cleavage site: glnRA (positions -5 to +31 mutated)
[4] = experiment (reporter, strain, medium): exp 6: tetM reporter, strain 168, cleavage site: cggR-gapA (positions -7 to +36 mutated)

## ACAGACGAAGGAGCCGCAAAGAATTTATTAAGGGATGAATAGTCCCTCAATATAAATATCTCTCACTTATTTAAA
[1]
  cleaved RNA product abundance: 0.713

## ACAGACGAAGGAGCCGCAAAGAAGTTATTAAGGGATGCATAATACCTCAATATAAATATCTCTCACTTATTTAAA
[2]
  cleaved RNA product abundance: 0.129
[1]
  cleaved RNA product abundance: 0.141

## ACAGACGAAGGAGCCGCGAAGAAGTTATTAAGGGATGAATAATTCCTCAATATAAATATCTCTCACTTATTTAAA
[1]
  cleaved RNA product abundance: 0.684

## ACAGACGAAGGAGCCGCAATGAAGTTATTAAGGGATGAATATTCCCTCAATATAAATATCTCTCACTTATTTAAA
[2]
  cleaved RNA product abundance: 0.573
[1]
  cleaved RNA product abundance: 0.519

## ACAGACGAAGGAGCCGCAAAGAAGTTATTAAGGCATGAATAATCCCTCGATATAAATATCTCTCACTTATTTAAA
[1]
  cleaved RNA product abundance: 0.0814

## ACAGACGAAGGAGCCGCAAAGAAGTTATTTAGGGATGAATAATCCCTCAATTTAAATATCTCTCACTTATTTAAA
[1]
  cleaved RNA product abundance: 0.119

## ACAGACGAAGGAGCCGCAAAGAAGTTATTAAGGGATGAACAATCCCTCAATAAAAATATCTCTCACTTATTTAAA
[1]
  cleaved RNA product abundance: 0.151

## ACAGACGAAGGAGCCGCAAAGAAGTTATTAAGGGATGAATAATCCCCCAATATAAATAACTCTCACTTATTTAAA
[1]
  cleaved RNA product abundance: 0.347

## ACAGACGAAGGAGCCGCAAAGAAGTTATTAATGGATGAATAAGCCCTCAATATAAATATCTCTCACTTATTTAAA
[1]
  cleaved RNA product abundance: 0.107

## ACAGACGAAGGAGCCGCAAAGAAGTTATTAAGTGATGAATAATCCCTCAAAATAAATATCTCTCACTTATTTAAA
[2]
  cleaved RNA product abundance: 0.102
[1]
  cleaved RNA product abundance: 0.124

## CGACATGTCCCGCTTCTTTCATTATTCCGTTAGCAACTGTTTTGCTATACACATTTACCTTTTAAGAGGAGGAAT
[3]
  cleaved RNA product abundance: 0.807

## ACAGACGAAGGAGCCGCATAGAAGTTATTAACGGATGAATAATCCCTCAATATAAATATCTCTCACTTATTTAAA
[1]
  cleaved RNA product abundance: 0.193

## ACAGACGAAGGAGCCGCAAAGAAGTTTCTAAGGGATGAATAATCCCTCAATATAAATATCTCTCACTTATTTAAA
[2]
  cleaved RNA product abundance: 0.234
[1]
  cleaved RNA product abundance: 0.344

## ACAGACGAAGGAGCCGCAAAGAAGTTATTAAGAGATGAATAATCCCTCAATAAAAATATCTCTCACTTATTTAAA
[1]
  cleaved RNA product abundance: 0.113

## CGACATGTCCCGCTTCTTTCATTATGCCGTTAGCAACTGTTTTGCTATATACATTTACCTTTTAAGAGGAGGAAT
[3]
  cleaved RNA product abundance: 1.32

## ACAGACGAAGGAGCCGCAAAGAAGTTATTAAGGGATGAATCATCCCTAAATATAAATATCTCTCACTTATTTAAA
[2]
  cleaved RNA product abundance: 0.597
[1]
  cleaved RNA product abundance: 1

## ACAGACGAAGGAGCCGCAAAGAAGTTATTAAGGGATGAATAATCCCTCAGTATATATATCTCTCACTTATTTAAA
[1]
  cleaved RNA product abundance: 0.242

## ACAGACGAAGGAGCCGCAAAGAAGTTATTAAGGGATGAATAATATCTCAATATAAATATCTCTCACTTATTTAAA
[2]
  cleaved RNA product abundance: 0.0986
[1]
  cleaved RNA product abundance: 0.116

## CGACATGTCCCGCTTCTTTCATTAACCCGTTAGCAACTGTTTTGCTATATACATTTACATTTTAAGAGGAGGAAT
[3]
  cleaved RNA product abundance: 2.01

## ACAGACGAAGGAGCCGCAAAGAAGTTATTAAGTGATGAATAATCCCTCAATAGAAATATCTCTCACTTATTTAAA
[1]
  cleaved RNA product abundance: 0.0533

## CGACATGTCCCGCTTCTTTCATTAATCCGTTAGCAACTGTTTAGCTATATACATTTGCCTTTTAAGAGGAGGAAT
[3]
  cleaved RNA product abundance: 0.326

## ACAGACGAAGGAGCCGCAAAGAAGTTATTAAGGGATGAATAATCCCTTATTATAAATATCTCTCACTTATTTAAA
[1]
  cleaved RNA product abundance: 0.813

## CGACATGTCCCGCTTCTTTCATTAATCCGTTAGCAAATGTTTTGCTATATACATTTACCCTTTAAGAGGAGGAAT
[3]
  cleaved RNA product abundance: 0.852

## ACAGACGAAGGAGCCGCAAAGAAGTTACTAAGGGATGATTAATCCCTCAATATAAATATCTCTCACTTATTTAAA
[2]
  cleaved RNA product abundance: 0.155

## ACAGACGAAGGAGCCGCACACAAGTTATTAAGGGATGAATAATCCCTCAATATAAATATCTCTCACTTATTTAAA
[1]
  cleaved RNA product abundance: 0.483

## ACAGACGAAGGAGCCGCAAAGAAGTTATTAATGGATGAATAATCCCTCAATAGAAATATCTCTCACTTATTTAAA
[1]
  cleaved RNA product abundance: 0.0769

## ACAGACGAAGGAGCCGCAAAGAAGTAATTAAGGGATGAATAATCGCTCAATATAAATATCTCTCACTTATTTAAA
[1]
  cleaved RNA product abundance: 0.0828

## ACAGACGAAGGAGCCGCAAAGAAGTTATTAAGGGATAAATAATCCCTCAATATAAAAATCTCTCACTTATTTAAA
[1]
  cleaved RNA product abundance: 0.943

## ACAGACGAAGGAGCCGCAAAGAAGTTATTAAGGGATGAATAATCCCTCAAAATATATATCTCTCACTTATTTAAA
[1]
  cleaved RNA product abundance: 0.304

## ACAGACGAAGGAGCCGCAAAGAAGTTATTAATGGATGAATAATCCCTCAATATACATATCTCTCACTTATTTAAA
[2]
  cleaved RNA product abundance: 0.157
[1]
  cleaved RNA product abundance: 0.165

## ACAGACGAAGGAGCCGCAAAGAAGTTATTAAGGGATGAATAATTCCTCAAGATAAATATCTCTCACTTATTTAAA
[2]
  cleaved RNA product abundance: 0.146
[1]
  cleaved RNA product abundance: 0.256

## ACAGACGAAGGAGCCGCAAAGAACGTATTAAGGGATGAATAATCCCTCAATATAAATATCTCTCACTTATTTAAA
[1]
  cleaved RNA product abundance: 0.724

## ACAGACGAAGGAGCCGCAAACAAGTTATTAAGGGATGAATAATCTCTCAATATAAATATCTCTCACTTATTTAAA
[2]
  cleaved RNA product abundance: 0.529
[1]
  cleaved RNA product abundance: 0.573

## CGACATGTCCCGCTTCTTTCATTAATCCCTTAGCAACTGTTTTGCTATATACATATACCTTTTAAGAGGAGGAAT
[3]
  cleaved RNA product abundance: 0.267

## ACAGACGAAGGAGCCGCAAAGAAGTTATTAAGGGATGAATTATCCCTCAATATACATATCTCTCACTTATTTAAA
[1]
  cleaved RNA product abundance: 0.442

## CGACATGTCCCGCTTCTTTCATTAATCCGTTAGAAAATGTTTTGCTATATACATTTACCTTTTAAGAGGAGGAAT
[3]
  cleaved RNA product abundance: 0.396

## CGACATGTCCCGCTTCTTTCATTAATCCGTTAGCAACTCTTTTGCTATATACATTTACCTTTTAAGAGGAGGAAT
[3]
  cleaved RNA product abundance: 1.15

## ACAGACGAAGGAGCCGCAAAGAAGTTATTAGGGGAAGAATAATCCCTCAATATAAATATCTCTCACTTATTTAAA
[2]
  cleaved RNA product abundance: 0.278

## ACAGACGAAGGAGCCGCAAAGAAGTTATTAAGGGATGAATAAACCCTTAATATAAATATCTCTCACTTATTTAAA
[1]
  cleaved RNA product abundance: 0.507

## CGACATGTCCCGCTTCTTTCATTAATCCTTTCGCAACTGTTTTGCTATATACATTTACCTTTTAAGAGGAGGAAT
[3]
  cleaved RNA product abundance: 0.299

## ACAGACGAAGGAGCCGCAAAGAAGTTATTAAGGGATGAATAATTCTTCAATATAAATATCTCTCACTTATTTAAA
[1]
  cleaved RNA product abundance: 0.18

## CGACATGTCCCGCTTCTTTCATTAATCCCTTAGCAACTGTTTTGCTATATACATTTACCTTTTAAGAGGAGGAAT
[3]
  cleaved RNA product abundance: 0.213

## ACAGACGAAGGAGCCGCAAAGAAGTTATTAAGCGATGAATACTCCCTCAATATAAATATCTCTCACTTATTTAAA
[1]
  cleaved RNA product abundance: 0.102

## CGACATGTCCCGCTTCTTTCATTAATCCGTTAGCATCTGTTTTGATATATACATTTACCTTTTAAGAGGAGGAAT
[3]
  cleaved RNA product abundance: 0.491

## CGACATGTCCCGCTTCTTTCATTAATCAGTTAGCAACTGTTTTACTATATACATTTACCTTTTAAGAGGAGGAAT
[3]
  cleaved RNA product abundance: 0.611

## ACAGACGAAGGAGCCGCAAAGAAGTTTATTAAGGGATGAATAATCCCTCAATATAAATATCTCTCACTTATTTAA
[1]
  cleaved RNA product abundance: 0.754

## CGACATGTCCCGCTTCTTTCATTAATCCGTTATCAACTGTTTTGCGATATACATTTACCTTTTAAGAGGAGGAAT
[3]
  cleaved RNA product abundance: 0.168

## ACAGACGAAGGAGCCGCAATGAAGTTATTAAGGGATGAATAAACCCTCAATATAAATATCTCTCACTTATTTAAA
[2]
  cleaved RNA product abundance: 0.647
[1]
  cleaved RNA product abundance: 0.454

## ACAGACGAAGGAGCCGCAAAGAAGTAATTAAGGGATGAATCATCCCTCAATATAAATATCTCTCACTTATTTAAA
[1]
  cleaved RNA product abundance: 0.314

## ACAGACGAAGGAGCCGCAAAGCAGTTATTAAGGAATGAATAATCCCTCAATATAAATATCTCTCACTTATTTAAA
[1]
  cleaved RNA product abundance: 0.0974

## ACAGACGAAGGAGCCGCAAAGAAGTTATTAACGGAGGAATAATCCCTCAATATAAATATCTCTCACTTATTTAAA
[1]
  cleaved RNA product abundance: 0.171

## ACAGACGAAGGAGCCGCAAAGAAGTTATTTAGTGATGAATAATCCCTCAATATAAATATCTCTCACTTATTTAAA
[2]
  cleaved RNA product abundance: 0.0988
[1]
  cleaved RNA product abundance: 0.111

## ACAGACGAAGGAGCCGCAAAGAAGTTATTAACGGATGAATTATCCCTCAATATAAATATCTCTCACTTATTTAAA
[2]
  cleaved RNA product abundance: 0.12
[1]
  cleaved RNA product abundance: 0.179

## ACAGACGAAGGAGCCGCAAAGAAGTTATTAAGGGATGAATTAACCCTCAATATAAATATCTCTCACTTATTTAAA
[1]
  cleaved RNA product abundance: 0.492

## ACAGACGAAGGAGCCGCAAAGAAGTTATTAAGGTATGAATAATCCCTCAATATATATATCTCTCACTTATTTAAA
[2]
  cleaved RNA product abundance: 0.121
[1]
  cleaved RNA product abundance: 0.0867

## ACAGACGAAGGAGCCGCAAAGAAGTTATTATGGGATGAATAATCTCTCAATATAAATATCTCTCACTTATTTAAA
[2]
  cleaved RNA product abundance: 0.224
[1]
  cleaved RNA product abundance: 0.285

## ACAGACGAAGGAGCCGCAAAGAAATTATTAAGGGATGAATAATCCCTCAAGATAAATATCTCTCACTTATTTAAA
[2]
  cleaved RNA product abundance: 0.188
[1]
  cleaved RNA product abundance: 0.189

## ACAGACGAAGGAGCCGCAAAGAAGATATTAAGGGATGAATAATCCCTCAATATAAATATCTCTCACTTATTTAAA
[2]
  cleaved RNA product abundance: 0.68
[1]
  cleaved RNA product abundance: 0.751
[4]
  cleaved RNA product abundance: 0.612

## ACAGACGAAGGAGCCGCAAAGAAGTTATTAAGGGATGAATAATCCCTCAATATAATTATCTCTCACTTATTTAAA
[2]
  cleaved RNA product abundance: 0.673
[1]
  cleaved RNA product abundance: 0.491
[4]
  cleaved RNA product abundance: 0.338

## ACAGACGAAGGAGCCGCAAAGAAGTTATTCAGGGATAAATAATCCCTCAATATAAATATCTCTCACTTATTTAAA
[1]
  cleaved RNA product abundance: 1.1
